The text below walks through data of patent US20230066984A1, “New Carbon Glycoside Glycosyltransferase and Use Thereof” (CAS Center for Excellence in Molecular Plant Sciences, priority 2020, published 2023).

As a reminder, the Km is the substrate concentration at which the rate is half of its maximum.

The nature of data set [1]: In vitro functional identification of C-glycosyltransferases by HPLC, phloretin as glycosyl receptor. The class given is biochemical. Particulars: 0.1 mM phloretin, 0.3 mM UDP glucose, crude enzyme, 37° C., 2 h, HPLC (FIG. 1A). A digest of the protocol:
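Crude lysate supernatant of E. coli BL21(DE3) expressing the recombinant enzyme (IPTG 0.1 mM, 16° C, 20 h), empty pET28a strain as blank. Reaction: 0.1 mM acceptor, 0.3 mM UDP-glucose in 20 mM Tris-HCl pH 8.0/100 mM NaCl, 37° C for 2 h, methanol-quenched; products by reverse-phase C18 HPLC at 280 nm.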

Substrate in data set [2]: O=C1C[C@@](O)(c2ccc(O)cc2)Oc2cc(O)cc(O)c21
The data set can be described thus: in vitro kinetic parameters of C-glycosyltransferase PhCGT1 with 2-hydroxynaringenin (FIG. 5). Format: biochemical. Conditions: other: PhCGT1; substrate 2-hydroxynaringenin; 37.0 °C. The method, then: (§1) The in vitro enzyme catalytic assay system is 100 μL. The reaction system includes: 0.1 mM glycosyl receptor (phloretin or 2-hydroxynaringenin), 0.3 mM UDP glucose, 25 μL supernatant crude enzyme solution, and Buffer A is used to make up the volume to 100 μL, and react at 37° C. for 2 h. After the reaction was completed, an equal volume of methanol was added to terminate the reaction, and HPLC was used for product analysis. HPLC detection conditions: chromatographic column: reverse phase C18 column [SilGreen ODS column (ø 4.6×250 mm)], detection wavelength 280 nm; mobile phase: acetonitrile (0.1% formic acid)-water (0.1% formic acid) mixture gradient elution, with increased ratio from 5:95 to 100:0 within 0 to 20 min, and the flow rate was 1 mL/min.
(§2) The Km value is the substrate concentration when the enzymatic reaction presents half of its maximum reaction rate, and the lower the Km value, the higher the enzymatic activity of the C-glycosyltransferase.

Substrate in data set [3]: O=C1C[C@@](O)(c2ccc(O)cc2)Oc2cc(O)cc(O)c21
Description: in vitro kinetic parameters of C-glycosyltransferase PgCGT1 with 2-hydroxynaringenin (FIG. 5). The class given is biochemical, henon bamboo (Phyllostachys glauca). Particulars: other: PgCGT1; substrate 2-hydroxynaringenin; 37.0 °C. The method, then:
as §1, §2

B1: Phyllostachys edulis (moso bamboo) C-glycosyltransferase PhCGT1, SEQ ID NO: 1 (Phyllostachys edulis) (protein)
chain: MPTSGGRTGDRPHVILLPSAGMGHLVPFSRLAVALSSGHGCDVSVVAVLPTVSAAESRHLQGLLDASPAVRRLDLHLAPFDESEFPGADPFFLRFEAMRRSAPLLGPLLADTGASALVTDIALASVVIPVAKEIHLPCYVLFTASAAMLSFCAYFPTYLDTNAGRVVGDVDIPGVYRIPKASIPQALHDPNHLFTRQFVANGQDLAKADGVLVNTFDALELEAVTALRQGSVAAGFPPVFSVGPLVTVNLPAGEAAKESGNDYMYWLDAQPAQSVVYVSFGSRKAISRDQVRELAIGLEASGQPFLWVVKSTVVDRDDSAELSELLGEGFLERVQGQGFVTKAWVEQEEVLKHESIGLFISHCGWNSVTEAAASGVPVLAWPRFGDQRVNAGVVARGGLGVWVERWSWEGEEDVVSGEEIAEKVKAVMADETVRKKAASVGEAAVKEFADGGTSYRSLTEFVRRCRDLAVLD
notes: pET28a (pCZ86), E. coli BL21(DE3) in fermentation; A1 assay uses crude enzyme supernatant
For B1, the “conversion of substrate phloretin to C-glycosylated product (Nothofagin)” value in data set [1] was “can convert the substrate phloretin to a product having a shorter retention time”. The Km in data set [2] came to 1.75 ± 0.66 µM.

B2: Phyllostachys glauca (henon bamboo) C-glycosyltransferase PgCGT1, SEQ ID NO: 2 (Phyllostachys glauca) (protein)
chain: MPTSGSRTGGRPHVILLPSAGMGHLVPFSRLAVALSSGHGCDVSVVAVLPTVSAAESRHLQGLLDASPAVRRLDLHLAPFDESEFPGADPFFLRFEAMRRSAPLLGPLLADTGASALVTDIALASVVIPVAKEIHLPCYVLFTASAAMLSFCAYFPTYLDTNAGRVVGDVDIPGVYRIPKASIPQALHDPNHLFTRQFVANGQDLAKADGVLVNTFDALELEAVTALRQGSVAAGFPPVFSVGPLVTVNLPAGEAAKESGNDYMYWLDAQPARSVVYVSFGSRKAISRNQVRELAVGLEASGQRFLWVVKSTVVDRDDSAELSELLDEGFLERVQGRGLVTKAWVEQEEVLKHESIGLFISHCGWNSVTEAAASGVPVLAWPRFGDQRVNAGVVARGGLGVWVERWSWEGEEGVVSGEEIAEKVKAVMADETVRKKAASVGEAAVKEFADGGTSYRSLTEFVRRCRDLAVLD
notes: A1 assay uses crude enzyme supernatant
Consider B2, for which the Km in data set [3] stood at 2.75 ± 0.75 µM. Besides, the “conversion of substrate phloretin to C-glycosylated product (Nothofagin)” value in data set [1] was “can convert the substrate phloretin to a product having a shorter retention time”.
